The RNAGym collection of RNA variant scans (doi:10.1101/gr.219683.116)

B1: mRNA-splicing (parent)
chain: AGUUGCUGCUGGGAGCUCCAGCACAGUGAAAUGGACAGAAGGGCAGAGCAA

Variants of: B1
Test: exon inclusion enrichment index; higher = more inclusion; WT1 exon 5 minigene, HEK293

| Variant | exon inclusion enrichment index |
| --- | --- |
| AGUUUCUUUUGGUUGCUCCAGCACAGUGAAAUGGACAGAAGGGCAGAGCAA | 0.0249 |
| AGUUUCUUUUGGGAACUCCAGCACAGUGAAAUGGACAGAAGGGCAGAGCAA | 0.0439 |
| AGUUUCUUUUGGGAAAUCCAGCACAGUGAAAUGGACAGAAGGGCAGAGCAA | 0.0496 |
| AGUUUCUUUUGGGAAGUCCAGCACAGUGAAAUGGACAGAAGGGCAGAGCAA | 0.043 |
| AGUUUCUUUUGGGAAUUCCAGCACAGUGAAAUGGACAGAAGGGCAGAGCAA | 0.0203 |
| AGUUUCUUUUGGGACCUCCAGCACAGUGAAAUGGACAGAAGGGCAGAGCAA | 0.196 |
| AGUUUCUUUUGGGACAUCCAGCACAGUGAAAUGGACAGAAGGGCAGAGCAA | 0.0947 |
| AGUUUCUUUUGGGACGUCCAGCACAGUGAAAUGGACAGAAGGGCAGAGCAA | 0.179 |
| AGUUUCUUUUGGGACUUCCAGCACAGUGAAAUGGACAGAAGGGCAGAGCAA | 0.0902 |
| AGUUUCUUUUGGGAUCUCCAGCACAGUGAAAUGGACAGAAGGGCAGAGCAA | 0.107 |
| AGUUUCUUUUGGGAUAUCCAGCACAGUGAAAUGGACAGAAGGGCAGAGCAA | 0.0344 |
| AGUUUCUUUUGGGAUGUCCAGCACAGUGAAAUGGACAGAAGGGCAGAGCAA | 0.064 |
| AGUUUCUUUUGGGAUUUCCAGCACAGUGAAAUGGACAGAAGGGCAGAGCAA | 0.0287 |
| AGUUUCUUUUGGGAGCUCCAACACAGUGAAAUGGACAGAAGGGCAGAGCAA | 0.0718 |
| AGUUUCUUUUGGGAGCUCCAAAACAGUGAAAUGGACAGAAGGGCAGAGCAA | 0.0256 |
| AGUUUCUUUUGGGAGCUCCAAGACAGUGAAAUGGACAGAAGGGCAGAGCAA | 0.143 |
| AGUUUCUUUUGGGAGCUCCAAUACAGUGAAAUGGACAGAAGGGCAGAGCAA | 0.0464 |
| AGUUUCUUUUGGGAGCUCCACCACAGUGAAAUGGACAGAAGGGCAGAGCAA | 0.162 |
| AGUUUCUUUUGGGAGCUCCACAACAGUGAAAUGGACAGAAGGGCAGAGCAA | 0.108 |
| AGUUUCUUUUGGGAGCUCCACGACAGUGAAAUGGACAGAAGGGCAGAGCAA | 0.384 |
| AGUUUCUUUUGGGAGCUCCACUACAGUGAAAUGGACAGAAGGGCAGAGCAA | 0.151 |
| AGUUUCUUUUGGGAGCUCCAUCACAGUGAAAUGGACAGAAGGGCAGAGCAA | 0.078 |
| AGUUUCUUUUGGGAGCUCCAUAACAGUGAAAUGGACAGAAGGGCAGAGCAA | 0.0438 |
| AGUUUCUUUUGGGAGCUCCAUGACAGUGAAAUGGACAGAAGGGCAGAGCAA | 0.103 |
| AGUUUCUUUUGGGAGCUCCAUUACAGUGAAAUGGACAGAAGGGCAGAGCAA | 0.0182 |
| AGUUUCUUUUGGGAGCUCCAGCACAAUGAAAUGGACAGAAGGGCAGAGCAA | 0.201 |

| Variant | exon inclusion enrichment index |
| --- | --- |
| AGUUUCUUUUGGGAGCUCCAGCACAAAGAAAUGGACAGAAGGGCAGAGCAA | 0.24 |
| AGUUUCUUUUGGGAGCUCCAGCACAACGAAAUGGACAGAAGGGCAGAGCAA | 0.838 |
| AGUUUCUUUUGGGAGCUCCAGCACAAGGAAAUGGACAGAAGGGCAGAGCAA | 0.338 |
| AGUUUCUUUUGGGAGCUCCAGCACACUGAAAUGGACAGAAGGGCAGAGCAA | 0.177 |
| AGUUUCUUUUGGGAGCUCCAGCACACAGAAAUGGACAGAAGGGCAGAGCAA | 0.135 |
| AGUUUCUUUUGGGAGCUCCAGCACACCGAAAUGGACAGAAGGGCAGAGCAA | 0.621 |
| AGUUUCUUUUGGGAGCUCCAGCACACGGAAAUGGACAGAAGGGCAGAGCAA | 0.648 |
| AGUUUCUUUUGGGAGCUCCAGCACAUUGAAAUGGACAGAAGGGCAGAGCAA | 0.161 |
| AGUUUCUUUUGGGAGCUCCAGCACAUAGAAAUGGACAGAAGGGCAGAGCAA | 0.0473 |
| AGUUUCUUUUGGGAGCUCCAGCACAUCGAAAUGGACAGAAGGGCAGAGCAA | 0.729 |
| AGUUUCUUUUGGGAGCUCCAGCACAUGGAAAUGGACAGAAGGGCAGAGCAA | 0.458 |
| AGUUUCUUUUGGGAGCUCCAGCACAGUAAAAUGGACAGAAGGGCAGAGCAA | 0.0119 |
| AGUUUCUUUUGGGAGCUCCAGCACAGUACAAUGGACAGAAGGGCAGAGCAA | 0.0709 |
| AGUUUCUUUUGGGAGCUCCAGCACAGUAGAAUGGACAGAAGGGCAGAGCAA | 0.0263 |
| AGUUUCUUUUGGGAGCUCCAGCACAGUAUAAUGGACAGAAGGGCAGAGCAA | 0.0186 |
| AGUUUCUUUUGGGAGCUCCAGCACAGUCAAAUGGACAGAAGGGCAGAGCAA | 0.0778 |
| AGUUUCUUUUGGGAGCUCCAGCACAGUCCAAUGGACAGAAGGGCAGAGCAA | 0.115 |
| AGUUUCUUUUGGGAGCUCCAGCACAGUCGAAUGGACAGAAGGGCAGAGCAA | 0.342 |
| AGUUUCUUUUGGGAGCUCCAGCACAGUCUAAUGGACAGAAGGGCAGAGCAA | 0.0407 |
| AGUUUCUUUUGGGAGCUCCAGCACAGUUAAAUGGACAGAAGGGCAGAGCAA | 0.0111 |
| AGUUUCUUUUGGGAGCUCCAGCACAGUUCAAUGGACAGAAGGGCAGAGCAA | 0.0643 |
| AGUUUCUUUUGGGAGCUCCAGCACAGUUGAAUGGACAGAAGGGCAGAGCAA | 0.118 |
| AGUUUCUUUUGGGAGCUCCAGCACAGUUUAAUGGACAGAAGGGCAGAGCAA | 0.0195 |
| AGUUUCUUUUGGGAGCUCCAGCACAGUGAAAUAGACAGAAGGGCAGAGCAA | 0.00649 |
| AGUUUCUUUUGGGAGCUCCAGCACAGUGAAAUAAACAGAAGGGCAGAGCAA | 0.0153 |
